{
  "source": "patent US20170042969A1",
  "molecular_target": "ornithine decarboxylase (ODC) (UniProt P11926)",
  "sequence (P11926 whole entry)": "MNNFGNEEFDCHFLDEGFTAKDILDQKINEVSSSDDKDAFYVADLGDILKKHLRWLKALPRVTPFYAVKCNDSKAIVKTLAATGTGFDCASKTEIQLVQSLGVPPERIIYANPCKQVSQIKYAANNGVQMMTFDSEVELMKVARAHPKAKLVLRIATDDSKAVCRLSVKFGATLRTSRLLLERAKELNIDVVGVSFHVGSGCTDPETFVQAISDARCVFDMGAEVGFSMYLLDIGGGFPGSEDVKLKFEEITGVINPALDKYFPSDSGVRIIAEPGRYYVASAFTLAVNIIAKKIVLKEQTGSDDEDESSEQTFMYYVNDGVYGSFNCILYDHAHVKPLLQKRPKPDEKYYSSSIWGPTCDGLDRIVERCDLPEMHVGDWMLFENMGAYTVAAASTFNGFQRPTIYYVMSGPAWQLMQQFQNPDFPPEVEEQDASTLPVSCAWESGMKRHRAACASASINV",
  "assay": "cell-based or functional assay",
  "data": [
    {"substance": "QEP (glutamine-glutamic acid-proline tripeptide)", "values": [
      {"measurement": "decrease in activity of purified ODC (released CO2) after 1 h with 100 µM peptide", "result": 40, "unit": "%"}
    ]}
  ]
}
